# The DeepSol protein solubility set
# Assay: soluble on expression in E. coli; label from the status in PepcDB or PDB records
row,Sequence,soluble on expression in E. coli
1,MESLQNHFLIAMPSLDDTFFERTVIYLCEHDEKGAMGLVINKPLGIEVNSLLEQMDLPTEQVSADLAMGSQVLMGGPVSQDRGFVLHTSQPYWANSTELGSGLMLTTSRDVLTAIGSKRSPDKFLVALGYAGWSKNQLEQELADNSWLTIPADHALLFDINHEDRWQQASRSLGFEAWQLSTQAGHALEHHHHHH,soluble
2,MNLRTQKFHMYFKQWIELYKEGAVRPVTYQKYQMSHKHLVTLAPDLHMDELKRRTYQELINEFAANHEKQTTLDFHHHLKAAILDALDEGILEQDPTRKVLEHHHHHH,not soluble
3,MGSDKIHHHHHHMLFWSTVDLGLTFMATSSTLAFDSSNRIDDVKIVIKGYEFGPAVPKLVVKLNQKISKVSTKDLKVETAGVKRQIKKVYLSDKNSQKSTKKEGDYLTIQMPVTYNVDDSSKNASPFVYNTDVFQNQWVKTYPVSIKGLTVSYKGKSTNNLTSKSDAINKRVSPDSEVFTNRGSFSGNYTNPLTKKNEKVDLQYAAYEPKKLQSGNKNPLIIWLHGQGEGGTDPDITLLGNKVTALIKEDIQNHFKSGNQKGTYVLTVQAPTYWMDEGDGSNGQGAGTSRYTEVLMDAIKKYVAKIT,not soluble
4,MAEEGYKVVLNVYDLSNGLARQLSTSFLGKPIEAIWHTGVVVYGNEYFFGGGIQSLAAGRTPYGRPVRVVEMGETHIPREVFEDYLRDISPRYTAETYRLLSHNCNNFSNEVAQFLVGAGIPDYILNLPAEVMSSPMGPLIMPMIQNLESTLRTNAAPQATQFVPSSVPPPPPPQNKPGEGSSSSKQEDKAAKAKQGSAADPLGGARGKVQEEVMREFAAIMASGTLRASEAAALAMRRVMERHGNATMQQS,soluble
5,MSKYSDAKELASLTLGKKTEYANQYDPSLLQPVPRSLNRNDLHLSATLPFQGCDIWTLYELSWLNQKGLPQVAIGEVSIPATSANLIESKSFKLYLNSYNQTRFASWDEVQTRLVHDLSACAGETVTVNVKSLNEYTAEPIVTMQGECIDDQDIEIANYEFDDALLQGAAQGEEVSEVLHSHLLKSNCLITNQPDWGSVEIAYHGAKMNREALLRYLVSFREHNEFHEQCVERIFTDIMRYCQPQSLTVYARYTRRGGLDINPFRSSHQSAPNHNQRMARQ,not soluble
6,SDEDGLPLMGSGIDLTKVPAIQQKRTVAFLNQFVVHTVQFLNRFSAVCEEKLADLSLRIQQIETTLNILDAKLSSIPGLEDVTVEVSPLNVTAVTNGSHSETTSEQTQQNSTQDSGAQESEAPSENVLTVAKDPRYARYRKMVQVGVPVMAIRDKMISEGLDPELLEKPDAPVPNGESKRAVEESSDSDSSFSD,soluble
7,MVEADPRFQEAIRLFNAQEWYAAHDVLEEIWHETADPERRCLQGLLQVAVAQLHLQRDNQRGATILFGEALGRLRRPGTPDLGLDLPALCHCVQGRLVQLQQDGDPESCTVPVLSPSP,not soluble
8,MRKLTLPKDFLWGGAVAAHQVEGGWNKDGKGPSICDVLTGGAHGVPREITQNVVAGKYYPNHEAVDFYGHYKEDIRLFAEMGFKCFRTSIAWTRIFPNGDESQPNEAGLKFYDDMFDELLKYNIEPVITLSHFEMPLHLVQHYGGWTNRKVVDFFVRFAEVVFERYKHKVKYWMTFNEINNQRNWRAPLFGYCCSGVVYTEHENPEETMYQVLHHQFVASALAVKAARRINPQMKVGCMLAMVALYPFSCKPEDVMFAQESMRERYVFTDVQLRGYYPSYVLNEWERRGFNIKMEDGDLEVLREGTCDYLGFSYYMTNAVKAEGGSGDAISGFEGSVPNPYVKASDWGWQIDPVGLRYSLCELYERYQKPLFIVENGFGAYDKVEEDGSINDDYRIDYLRAHIEEMKKAVTYDGVDLMGYTPWGCIDCVSFTTGQYSKRYGFIYVNKHDDGTGDMSRSRKKSFNWYKEVIASNGEKL,not soluble
9,MSKYAGIVLAGGMSSRFGEPKALAIWKETTFVEHIVKVMGNTLQDIVVISHTDIKERVEQFVQVPVIEDIPHYKGNGPLAGIVSGMEYIEADWYAIMPCDAPNVSHEWFTILLEQTNNEYDAVVPIINGRKQPLLAAYHNRVKEKIYALLQEEKRSMGQLLSQCNVKYVSGEDVQANADWFINVNTKEEYVQAQKDLSNE,soluble
10,MNVVKFGGSSLASAPQLQKVLQIVKEEPRRTFVVVSAPGKRTPQDIKVTDLLIQYYQRYLNNEEIESTISAIIRRYEDLFDELHLDKAVLADIAISIRQLATLPKENNAFLFDYFLASGEDNNAKVVASFFKQNGLDARYISPKELGLLVTPEPGNARILPKALEKISVYRETQQILVIPGFFGYTEAGEICTFSRGGSDITGSIVAAGVQADLYENFTDVDGIYVAHPGIIEQPQTIQELTYREMRELAYAGFAVLHDEALMPAYRANIPVVIKNTNNPHHPGTLITTSRKVKHAPVVGIASDQGFASIYISKYLMNRELGFGRRLLEVLEKLALSYEHMPSGIDDITIVLREDQLTTEIENRLMAQLQEVLAPDELRITHHLSMIMIVGEGMRQRIGVTAESTMALAKEKINLEMINQGSSEVSIMFGIKKEQEEKAIKALYRTFFHD,not soluble
11,ASRPHQWQTDEEGVRTGKCSFPVKYLGHVEVDESRGMHICEDAVKRLKATGKKAVKAVLWVSADGLRVVDEKTKDLIVDQTIEKVSFCAPDRNFDRAFSYICRDGTTRRWICHCFMAVKDTGERLSHAVGCAFAACLERKQKR,soluble
12,MGSDKIHHHHHHMDVENIFRDVKLSKTEMTVLRFIQNDPEQCIRQGVRAVAEQCYSNPSSLVRLAKKLKFSGWLELVYFIKFNITMPKLDVTNDIDYMSVQPEEALTPLLASLNQQRILIHGSGFSQLIAQYIYNKFLVTGVNASLALWPDYEILEQKNAACFDSIWIISKSGRSSSALNWVKALEGKEINLVCFTGDYQSPLAQAADTAFIIHDPQKFDDDIYWSNPFFGYCILGFERLLKMWFTSLRSNS,not soluble
13,MGSDKIHHHHHHMTSFNSNELQKLYIAFFGRPCDPAGMNYWLSKSEDKANLIDVAKAFSSQEEYKKSLTSVNSIEFQINQIYLNLFARKADFDSLNTWSLKCKRGELKIYELASMLTIEQSNIEEKIDNISLKDVEVLEKKVQAAQLFTDQISKDICWINAYKPDSIDPWILGKALQVGINYLNKVDSSYHLDKYAVTEILHKMSFEKINTSTKAIIKIRNLSLTIPISFKHDQKLSNLLTKGVLNSIIGGQLVKNKTTTKIEALRNINLTIMNGERVALIGHNGSGKTSFLKVISGIYLPTEGDLDVEVDVYPMLQKSFLTSTDLTGVDAAKAHYLLVNKSLNGFDQFLQDIIEFSGLGEFISLPIKTYSEGMSARLIFSILTSIPHDCLAIDEGFGTGDSDFFERAEKRMKSFMNSSGTLILASHSEHLLKQFCTRGIVFNHGQVVYDGSLDASLNYYHTHDYIHSNDN,not soluble
14,MSEGSNVLVSIILVNYNGADILPDCLNSIDKFISKDNCEILLVDNASQDNSYELVAQDFPDVKIVRLPKNYGFGAGNNAGAKIAKGKFLLLLNTDTILTTNILPHLIDLMRENPDVGIIGTKLVFPDETFQISFAYTIGIKGEYKSRKLHEYAEDKSKLNSLEQEFNTIKEVDIVVGAALFIRADLFHSVGGFDEKFFIYFEDADLCRRVQNQGYKILYTPQVSLIHIRGHSMKKNANATVLEHHHHHH,not soluble
15,MELISVTKDNLEQEHICCAISNNKDCQVLSKKNWLNEQFEDGLVFLKGNVRGKCFIEYMPAEKAWAPVEADGYMYINCLWVSGQFKGQGYSNLLLEECIRDSREKGRLGLVVLTSKKKMPYLSDPKFLGYKGFIRADSAEPYFELFYLPFEADAPKPQFKEQVRQPRTEENGFVLYYTRQCPFTAKYVPLIESAAEENNIPFKAVLFKTSGEARNAPAPFTTYSLFYNGRFITNEILSEKRFEKILEAEGLG,not soluble
16,MAHHHHHHMPLTDEIQLEQLAPTIKGDASWSTGPIYVVCDVGGTNARVGFARAAQHEGSGLHIIYVRFRVTKRDIRQLLEFFDEVLQHLKKNLPYRAGPFLRRVASGAVSVPGPLTNGQLAGPFSNLKGIARLADYPVELFPRGRSALLNDLEAGSYGVLALSNAGMLSDYFKVMWKGTQWDALSEGKPVGSTIGHGRCMVVAPGTGVGSSLIHYVGVSDSYVVLALECGCLSMSWCANEDSKYVQALAGYMASKARVKGLDSTVAPIWEAAANGSGLEFNYAYEKEGPKASAPLKSAPEVAKLAKAGSDPAAVAAMDRLYKNLIGLTAETTMQFLPLTCVLMGDSIVSNSFYFDNPENVKKLQARINEHTMERQLKFLSRTTFLRQVRSVNINLLGCLEFGSQLSNRADQLAPTKSNL,not soluble
17,MRRLKRDPLERAFLRGYQNGITGKSRDLCPFTHPTTRQSWLNGWREGRGDNWDGLTGTAGLQRLNQLQHVLEHHHHHH,not soluble
18,MGSDKIHHHHHHMLTTDNQLIRLSQGQLNLLETCPRKFQHTHLEQLNSPLDPDHTDKLTLGSRFHLLMQQQEMGLPIDSFLQADTQLQNWMSGFANAAPEILTPATDRQTFRESEHYRTLQFQDYLLTVIYDLLIADHQQAQIFDWKTYPKPPDKRKLAQNWQTRLYMYVLAETSQYSPENISMTYWFVQSQGKPQNIQFTYSHNLHTQTAKKLHQLLDQLTKWLNNYQQGTLFPQVPVNSKACDYCQFAKKCDRLLPTVGHKLNSSESNSLEITAQAINKSFPALDAIEEVSI,not soluble
19,MGSDKIHHHHHHMSIEAKFKKLGTDNAPGQEVRQSAAGLEALIRGAPIEGRPVDFSHGDVDAHEPTPGAFDLFSAGVQSGGVQAYTEYRGDLGIRDLLAPRLAAFTGAPVDARDGLIITPGTQGALFLAVAATVARGDKVAIVQPDYFANRKLVEFFEGEMVPVQLDYVSADETRAGLDLTGLEEAFKAGARVFLFSNPNNPAGVVYSAEEIGQIAALAARYGATVIADQLYSRLRYAGASYTHLRAEAAVDAENVVTIMGPSKTESLSGYRLGVAFGSRAIIARMEKLQAIVSLRAAGYSQAVLRGWFDEAPGWMEDRIARHQAIRDELLHVLRGCEGVFARTPQAGSYLFPRLPKLAVAPAEFVKILRLQAGVVVTPGTEFSPHTADSVRLNFSQDHEAAVAAARRIVTLVERYRA,not soluble
20,MGSDKIHHHHHHMKTKPIDLYILSGFLGSGKSTLLKRLIEQEQARGNKIGVLMNELGEVSVDSSIVPKDTPLKEMLNGCICCTIQGELSAQLQSFIEEYELDVIFIEATGAAHPLEVVEACTHPVFAGQVRVRGVLTVVNARQWIEGKMSIKIKKLMEAQVTFADLIVVNKVDQVTDAQVEQLTTSIKDLNPKAINIPTTFSNLEPVHSERLHHAAAPSSRGSESKAHVHEHLHLRTMAVPIQHPVDRMELLSFLKGIQGQIYRVKGFIHLKESPGLFLFNYAYGDPMFERHRTDQAYAPVLVFIGDDLDHQAIEEGLQQLQQ,not soluble
21,NTITVSELLELIKKEDVIIVDTRSPREFKEETLPGAINIPLFLDDEHALIGKTYKQESREKAIEIATDIVEKSLKRILNEAKKLDRDKLIVVFCARGGMRSQTMALILQLLGFKVKRLIGGFKAFKHAVDK,not soluble
22,MAHHHHHHMSITSRFIGGVKHLLKGGSMKYLAAGEPYCPFGEAFGLTILPEYILEDDASNLRKGYVDVYTRASDRIILNDGRFQLPPLPPASFMPLLERLEQDNVVPKSWLNNQTANLYEPGDFIRAHIDNLFVYDDIFAICSLGSNCLLRFVHVQNGEELDVMVPDRSVYIMSGPARYVYFHMVLPVEAQRFSLVFRRSIMESDGGFRPVKTPFKEIMPYRATQILNALYSKQVGGVRVSVDDDFLESADIGAFDTSRWVKRLHPLRDWSLLRQLDEDEARVEALREKRFIDVDFSWRYRELRSYYKAMEESLVSPHVAHVTPQA,soluble
23,PPGPCLPPRLQGRPKAKEIQLRWGPPLVDGGSPISCYSVEMSPIEKDEPREVYQGSEVECTVSSLLPGKTYSFRLRAANKMGFGPFSEKCDITTAPG,soluble
